Data from publication PMC2904831 (Journal of molecular biology, 2010).
Where two headings read alike, the source gives them in different places. Where no end group is shown, it is not given here. [ ]: non-standard residue; d: D form. pS = N[C@@H](COP(=O)(O)O)C(=O)O

Key:
[1] = system: pMART-1-specific CD4+ T cell clone D7-F6; test: Recognition of peptide-pulsed HLA-DR1+ EBV-B cells by CD4+ T cell clone D7-F6; assay type: cell-based, human; details: ELISA
[2] = system: pMART-1-specific CD4+ T cell line D7; test: Recognition of titrated peptides on HLA-DR1+ APC by CD4+ T cell line D7; assay type: cell-based, human; details: T cell line D7, peptide 25 μM, ELISA; Fig. 4b
[3] = molecular target: HLA-DR1 (HLA-DRβ1*0101) purified from the EBV-transformed homozygous B lymphoblastoid cell line LG2 (human); test: radioligand binding
[4] = molecular target: HLA-DR1 (HLA-DRβ1*0101) purified from the EBV-transformed homozygous B lymphoblastoid cell line LG2 (human); test: radioligand binding; remark: listed apart in the source

Q: Which “GM-CSF secretion from T cells + APC + peptide” value (“GM-CSF secretion” for short) ([1]; clone D7-F6, HLA-DR1+ 2048-EBV cells pre-pulsed with peptide 25 μM, overnight, Fig. 3) does the source give for PKYVKQNTLKLAT [HA307-319] here?
A: < 15 pg/mL

Q: And the “GM-CSF secretion” value ([1]; clone D7-F6, peptide 15 μM, Fig. 4a)?
A: < 20 pg/mL

Q: And the “GM-CSF secretion” value [2]?
A: 0.7 ng/mL

Q: “pMART-1_(98–109) phosphopeptide (from UniProt Q16655 98-109)” was tested. Which fold decrease in other [3] did it give?
A: < 2 fold

Q: For “pMART-1_(100–116) phosphopeptide (from UniProt Q16655 100-116)”, which IC50 [3] is on record?
A: 327 nM

Q: How did the IC50 [4] turn out when APPAYEKL[pS]AEQSPP [pMART-1_(100–114) phosphopeptide] was run?
A: 102 nM

Q: Which IC50 [4] does the source give for APPAYEKL[pS]AEQ [pMART-1_(100–111) phosphopeptide] here?
A: 459 nM

Q: For APPAYEKL[pS]AEQSPPP [pMART-1_(100–115) phosphopeptide], which IC50 [4] is on record?
A: 142 nM
